T1: human LAG-3 on activated CD4 T cells (human, UniProt P18627 23-525)
T1 sequence (looked up): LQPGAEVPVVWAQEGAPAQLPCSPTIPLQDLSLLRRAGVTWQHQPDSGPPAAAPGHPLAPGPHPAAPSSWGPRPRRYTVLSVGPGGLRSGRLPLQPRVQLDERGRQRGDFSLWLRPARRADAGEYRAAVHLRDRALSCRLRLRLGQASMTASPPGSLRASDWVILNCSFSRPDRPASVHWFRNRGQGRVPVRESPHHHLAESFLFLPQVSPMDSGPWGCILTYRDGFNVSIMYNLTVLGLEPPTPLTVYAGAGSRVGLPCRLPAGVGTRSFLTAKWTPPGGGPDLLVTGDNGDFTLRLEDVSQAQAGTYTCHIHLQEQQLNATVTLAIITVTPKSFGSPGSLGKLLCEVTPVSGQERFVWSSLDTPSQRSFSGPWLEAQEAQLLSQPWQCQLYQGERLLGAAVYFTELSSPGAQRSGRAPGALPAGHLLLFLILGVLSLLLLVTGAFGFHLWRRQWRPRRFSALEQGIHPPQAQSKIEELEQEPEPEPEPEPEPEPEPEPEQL

T2: IL-2R on human cells (activated CD4 T cells, PBMC subsets, NK92) (human, UniProt P14784 27-551; P31785 23-369)
T2 sequence (looked up) 1: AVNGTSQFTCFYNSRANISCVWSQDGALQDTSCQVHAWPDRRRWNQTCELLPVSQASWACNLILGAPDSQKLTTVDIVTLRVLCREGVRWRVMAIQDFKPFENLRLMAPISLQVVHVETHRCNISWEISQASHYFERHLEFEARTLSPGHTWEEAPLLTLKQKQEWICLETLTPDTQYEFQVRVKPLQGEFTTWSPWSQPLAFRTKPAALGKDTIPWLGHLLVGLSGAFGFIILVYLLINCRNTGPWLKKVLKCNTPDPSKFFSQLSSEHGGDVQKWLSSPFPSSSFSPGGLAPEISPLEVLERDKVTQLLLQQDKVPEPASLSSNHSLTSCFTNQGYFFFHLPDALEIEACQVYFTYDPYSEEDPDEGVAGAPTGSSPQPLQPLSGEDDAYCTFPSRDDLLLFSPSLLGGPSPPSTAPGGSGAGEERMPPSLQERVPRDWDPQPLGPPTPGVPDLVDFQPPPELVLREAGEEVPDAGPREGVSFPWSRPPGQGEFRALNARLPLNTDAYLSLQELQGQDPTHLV
T2 sequence (looked up) 2: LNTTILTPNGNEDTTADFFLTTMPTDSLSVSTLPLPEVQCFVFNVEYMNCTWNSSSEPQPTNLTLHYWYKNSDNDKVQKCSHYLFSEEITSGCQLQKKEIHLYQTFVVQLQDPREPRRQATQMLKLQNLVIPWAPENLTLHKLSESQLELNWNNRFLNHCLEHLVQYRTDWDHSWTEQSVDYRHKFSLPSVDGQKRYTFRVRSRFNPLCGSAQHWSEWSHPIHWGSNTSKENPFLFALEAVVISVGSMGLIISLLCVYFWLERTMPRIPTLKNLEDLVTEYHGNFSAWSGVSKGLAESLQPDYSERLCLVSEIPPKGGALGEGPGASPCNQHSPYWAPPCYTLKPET


What was measured:
Assay in all cases: cell-based or functional assay
[1] = target: T3, human PD-1 on activated CD4 T cells (human, UniProt Q15116 25-288)
[2] = target: T3, human PD-1 on activated CD4 T cells; remark: listed apart in the source
[3] = target: T1, human LAG-3 on activated CD4 T cells
[4] = target: T2, IL-2R on human cells (activated CD4 T …)
[5] = target: T3, human PD-1 on activated CD4 T cells; remark: listed apart in the source
[6] = target: T1, human LAG-3 on activated CD4 T cells; remark: listed apart in the source
[7] = target: T2, IL-2R on human cells (activated CD4 T …); remark: listed apart in the source

T3 sequence (Q15116 25-288 limits assumed): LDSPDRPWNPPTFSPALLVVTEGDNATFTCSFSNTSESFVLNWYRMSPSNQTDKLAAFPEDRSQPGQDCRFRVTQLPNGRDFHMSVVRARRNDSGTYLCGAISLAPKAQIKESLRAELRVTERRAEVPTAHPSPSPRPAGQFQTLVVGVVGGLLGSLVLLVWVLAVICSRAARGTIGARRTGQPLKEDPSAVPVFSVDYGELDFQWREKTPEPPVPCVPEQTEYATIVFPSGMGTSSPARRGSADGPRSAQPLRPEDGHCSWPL

Row | Percentage of internalization (0.6 nM, activated CD4 T cells, 3 h at 37 C) [1] [%] | STAT5-P potency on PD-1+, LAG-3+ T cells against PD1-IL2v [2] [fold] | STAT5-P potency on PD-1+, LAG-3+ T cells against PD1-IL2v [3] [fold] | Potency reduction vs PD1-IL2v on PD-1+ LAG-3+ T cells [4] [fold] | Cis-delivery: fold increase in EC50, EC50 [PD1/LAG-3 bl.]/EC50 [PD1+/LAG-3+] [5] [fold] | Cis-delivery: fold increase in EC50, EC50 [PD1/LAG-3 bl.]/EC50 [PD1+/LAG-3+] [6] [fold] | Percentage of internalization (0.6 nM, activated CD4 T cells, 3 h at 37 C) [7] [%] | Binder
1 | 13.6 |  |  |  |  |  |  | anti-PD1 IgG PG LALA (P1AA6888) (antibody, V domains shown) VH: EVQLLESGGGLVQPGGSLRLSCAASGFSFSSYTMSWVRQAPGKGLEWVATISGGGRDIYYPDSVKGRFTISRDNSKNTLYLQMNSLRAEDTAVYYCVLLTGRVYFALDSWGQGTLVTVSS VL: DIVMTQSPDSLAVSLGERATINCKASESVDTSDNSFIHWYQQKPGQSPKLLIYRSSTLESGVPDRFSGSGSGTDFTLTISSLQAEDVAVYYCQQNYDVPWTFGQGTKVEIKR
2 |  | 127 | 127 | 0.00787 | 1110 | 1110 | 25.7 | PD1-LAG3-IL2v (P1AF4801) (bispecific antibody, human IgG1, kappa, L234A L235A) light 1: EVQLLESGGGLVQPGGSLRLSCAASGFSFSSYTMSWVRQAPGKGLEWVATISGGGRDIYYPDSVKGRFTISRDNSKNTLYLQMNSLRAEDTAVYYCVLLTGRVYFALDSWGQGTLVTVSSASVAAPSVFIFPPSDEQLKSGTASVVCLLNNFYPREAKVQWKVDNALQSGNSQESVTEQDSKDSTYSLSSTLTLSKADYEKHKVYACEVTHQGLSSPVTKSFNRGEC light 2: not shown heavy 1: EVQLLESGGGLVQPGGSLRLSCAASGFIFDDYTMNWVRQAPGKGLEWVAVISWDGGGTYYTDSVKGRFTISRDDFKNTLYLQMNSLRAEDTAVYYCAKGLTDTTLYGSDYWGQGTLVTVSSASTKGPSVFPLAPSSKSTSGGTAALGCLVEDYFPEPVTVSWNSGALTSGVHTFPAVLQSSGLYSLSSVVTVPSSSLGTQTYICNVNHKPSNTKVDEKVEPKSCDKTHTCPPCPAPEAAGGPSVFLFPPKPKDTLMISRTPEVTCVVVDVSHEDPEVKFNWYVDGVEVHNAKTKPREEQYNSTYRVVSVLTVLHQDWLNGKEYKCKVSNKALGAPIEKTISKAKGQPREPQVCTLPPSRDELTKNQVSLSCAVKGFYPSDIAVEWESNGQPENNYKTTPPVLDSDGSFFLVSKLTVDKSRWQQGNVFSCSVMHEALHNHYTQKSLSLSPGK heavy 2: not shown
3 |  | 6.5 | 6.5 | 0.154 | 485 | 485 | 28.1 | PD1-LAG3-IL2v Q126T (P1AF7951) (bispecific antibody, human IgG1, kappa, L234A L235A) light 1: EVQLLESGGGLVQPGGSLRLSCAASGFSFSSYTMSWVRQAPGKGLEWVATISGGGRDIYYPDSVKGRFTISRDNSKNTLYLQMNSLRAEDTAVYYCVLLTGRVYFALDSWGQGTLVTVSSASVAAPSVFIFPPSDEQLKSGTASVVCLLNNFYPREAKVQWKVDNALQSGNSQESVTEQDSKDSTYSLSSTLTLSKADYEKHKVYACEVTHQGLSSPVTKSFNRGEC light 2: not shown heavy 1: EVQLLESGGGLVQPGGSLRLSCAASGFIFDDYTMNWVRQAPGKGLEWVAVISWDGGGTYYTDSVKGRFTISRDDFKNTLYLQMNSLRAEDTAVYYCAKGLTDTTLYGSDYWGQGTLVTVSSASTKGPSVFPLAPSSKSTSGGTAALGCLVEDYFPEPVTVSWNSGALTSGVHTFPAVLQSSGLYSLSSVVTVPSSSLGTQTYICNVNHKPSNTKVDEKVEPKSCDKTHTCPPCPAPEAAGGPSVFLFPPKPKDTLMISRTPEVTCVVVDVSHEDPEVKFNWYVDGVEVHNAKTKPREEQYNSTYRVVSVLTVLHQDWLNGKEYKCKVSNKALGAPIEKTISKAKGQPREPQVCTLPPSRDELTKNQVSLSCAVKGFYPSDIAVEWESNGQPENNYKTTPPVLDSDGSFFLVSKLTVDKSRWQQGNVFSCSVMHEALHNHYTQKSLSLSPGK heavy 2: not shown
